Laboratory results published in patent US10253089B2, “Matrix metalloproteinase cleavable protein polymers for cancer gene therapy” (The University of Utah Research Foundation, priority 2012, dated 2019).

How the values were obtained:
[1] = system: JHU-022 head and neck cancer xenografts; assay: Quantitative viral gene expression (β-gal) in vivo, tumor and liver; set-up: species or system athymic nude (nu/nu) mice; conditions: 4 wt %
Protocol: Head and neck cancer xenografts were established by subcutaneously injecting 2×10^6 JHU-022 cells suspended in 200 μl Phosphate Buffer Saline (PBS) bilaterally in the flank of athymic nude (nu/nu) mice. Tumors were allowed to grow for two weeks to reach an average diameter of 7 mm. […] Virus-polymer solutions were prepared by thawing SELP and virus stocks and mixing them gently with physiological saline. Mice were anesthetized using 4 wt % isofluorane mixed with oxygen, and intratumorally injected with 25 μl of the polymer-virus solutions using a Hamilton syringe. Mice were euthanized on days 7, 14, and 21 and tumor and liver tissue were isolated. CPRG β-gal colorimetric assays were performed as described previously in the scientific literature. […] Recovered tissue lysates were then centrifuged for 45 minutes at 14,000 rpm and, subsequently, upper aqueous layers were used for β-gal quantification. […]
Polymer structures and compositions that formed robust hydrogels were selected for matrix-mediated delivery of reporter genes in a murine model of HNSCC. […] Animals were sacrificed at days 7, 14, and 21 for analysis of gene expression, and analyzed using a colorimetric tissue lysate assay for β-galactosidase. […]

[2] = 12 week subchronic toxicity study; format: in vivo, CD-1 immunocompetent mice
Protocol: Mice were anesthetized and maintained under anesthesia with 3% isofluorane in oxygen. After shaving and cleaning the injection site with 60% isopropanol, mice were subcutaneously injected in the right flank with 50 μl of solution using a 250 μl Hamilton syringe with a 26G needle. […] The injection site was gently clamped for 10 seconds to prevent leakage, after which mice were returned to their cages. For consistency, the day of viral injection was defined as day 0.
For treatment groups, a suspension of 1 mg GCV (Sigma Aldrich, St. Louis, Mo.) per ml of 0.9% physiological saline was prepared and sterilized through a 0.22 μm filter. Each day, animal weights were recorded, injection sites cleaned with 60% isopropanol, and mice injected i.p. with 1 mg/ml GCV suspension through a 26G needle sufficient for a total dose of 25 mg/kg body weight. Average dosing volume for these studies was approximately 0.6 ml. Mice were injected daily for the first four weeks of the 12 week recovery study, and for the entirety of the 1, 2, and 4 week studies.
The results for the 12 week subchronic toxicity study (FIG. 18) reveal many interesting points about SELP and its ability to improve the Ad.HSVtk/GCV toxicity profile. […]

[3] = biological target: MMP-9 (Homo sapiens, UniProt P14780); assay: Enzymatic digest of polymer by MMP-9, SDS-PAGE; format: biochemical; conditions: 1 mg/ml polymer, 10 nM and 40 nM MMP-9, 2-48 hours, room temperature
Protocol: (§1) This buffer recipe is sourced from the Molecular Probes EnzChek Gelatinase/Collagenase Assay Kit (Invitrogen, Carlsbad, Calif.), which was used to confirm the activity of MMP-2 and MMP-9 prior to use. 2× Laemmli Buffer was supplemented with 5% β-mercaptoethanol and added 1:1 by volume to the polymer solutions, which were then placed in a PCR thermal cycler and heated to 95° C. for five minutes to denature the protein. 25 μl of each sample was added to 4-15% Bis-Tris precast PAGE gel and electrophoresis was performed at 200V until the dye front reached the bottom of the gel, approximately 30 minutes. Kaleidoscope protein standard was used as a molecular weight marker. Following electrophoresis, gels were stained with GelCode Blue (colloidal Coomassie formulation) following manufacturer's instructions for staining and destaining.
(§2) 100 μl samples of each polymer were digested with a final concentration of 10 nM and 40 nM MMP-2 or MMP-9. MMP samples were incubated at room temperature for 2, 4, 12, 24, 36, and 48 hours and samples were run on PAGE gels and stained with GelCode Blue to visualize band patterns corresponding to protein degradation.
(§3) Additionally, this digestion is dependent on both time of exposure and concentration of MMP.

[4] = biological target: T1, MMP-2 (Homo sapiens, UniProt P08253); assay: Enzymatic digest of polymer by MMP-2, SDS-PAGE; format: biochemical; conditions: 1 mg/ml polymer, 10 nM and 40 nM MMP-2, 2-48 hours, room temperature
T1 sequence (P08253 110-660): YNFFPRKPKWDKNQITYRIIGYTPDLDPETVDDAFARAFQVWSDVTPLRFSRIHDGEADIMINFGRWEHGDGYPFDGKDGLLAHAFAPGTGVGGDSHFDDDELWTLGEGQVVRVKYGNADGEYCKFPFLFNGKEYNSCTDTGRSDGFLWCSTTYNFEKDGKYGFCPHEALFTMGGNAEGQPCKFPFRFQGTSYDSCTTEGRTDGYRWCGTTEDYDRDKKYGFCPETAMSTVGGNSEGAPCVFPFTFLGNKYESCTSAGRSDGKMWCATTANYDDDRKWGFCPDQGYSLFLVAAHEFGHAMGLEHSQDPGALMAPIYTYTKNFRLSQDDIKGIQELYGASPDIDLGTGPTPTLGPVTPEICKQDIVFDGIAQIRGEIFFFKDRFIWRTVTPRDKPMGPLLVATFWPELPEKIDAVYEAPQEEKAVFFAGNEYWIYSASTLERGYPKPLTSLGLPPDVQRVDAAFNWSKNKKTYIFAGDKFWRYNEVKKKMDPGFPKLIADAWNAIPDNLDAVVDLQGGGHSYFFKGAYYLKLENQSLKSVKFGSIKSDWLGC
Protocol: as §1, §2, §3

MMP-9, sequence (P14780 94-707): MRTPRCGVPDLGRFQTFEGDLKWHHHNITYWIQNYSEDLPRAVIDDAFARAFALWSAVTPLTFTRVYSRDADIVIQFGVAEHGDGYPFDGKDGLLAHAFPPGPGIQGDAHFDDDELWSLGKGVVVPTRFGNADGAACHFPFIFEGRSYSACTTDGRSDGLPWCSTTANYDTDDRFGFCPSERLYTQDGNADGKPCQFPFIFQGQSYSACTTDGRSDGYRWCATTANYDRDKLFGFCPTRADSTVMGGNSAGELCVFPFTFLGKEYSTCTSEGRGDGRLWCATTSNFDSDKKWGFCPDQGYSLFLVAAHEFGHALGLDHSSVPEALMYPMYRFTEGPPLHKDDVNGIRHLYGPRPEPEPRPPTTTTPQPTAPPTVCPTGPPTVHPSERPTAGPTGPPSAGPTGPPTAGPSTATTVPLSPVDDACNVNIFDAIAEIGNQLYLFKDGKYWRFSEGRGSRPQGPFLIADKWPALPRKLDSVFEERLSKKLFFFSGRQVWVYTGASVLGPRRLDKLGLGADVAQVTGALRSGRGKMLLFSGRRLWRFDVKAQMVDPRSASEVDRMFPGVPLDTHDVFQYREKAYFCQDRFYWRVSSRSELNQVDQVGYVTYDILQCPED

B1: SELP815K: silk-elastin-like protein polymer, longer silk units, fifteen elastin units, lysine elastin unit; monomer repeated 6 times (SEQ ID NO. 21) (protein)
chain: MDPVVLQRRDWENPGVTQLNRLAAHPPFASDPMGAGSGAGAGSGAGAGSGVGVPGVGVPGVGVPGVGVPGKGVPGVGVPGVGVPGVGVPGVGVPGVGVPGVGVPGVGVPGVGVPGVGVPGVGVPGVGVPGAGAGSGAGAGSGAGAGSGAGAGSGAGAGSGAGAGAGSGAGAGSGAGAGSGVGVPGVGVPGVGVPGVGVPGKGVPGVGVPGVGVPGVGVPGVGVPGVGVPGVGVPGVGVPGVGVPGVGVPGVGVPGVGVPGAGAGSGAGAGSGAGAGSGAGAGSGAGAGSGAGAGAGSGAGAGSGAGAGSGVGVPGVGVPGVGVPGVGVPGKGVPGVGVPGVGVPGVGVPGVGVPGVGVPGVGVPGVGVPGVGVPGVGVPGVGVPGVGVPGAGAGSGAGAGSGAGAGSGAGAGSGAGAGSGAGAGAGSGAGAGSGAGAGSGVGVPGVGVPGVGVPGVGVPGKGVPGVGVPGVGVPGVGVPGVGVPGVGVPGVGVPGVGVPGVGVPGVGVPGVGVPGVGVPGAGAGSGAGAGSGAGAGSGAGAGSGAGAGSGAGAGAGSGAGAGSGAGAGSGVGVPGVGVPGVGVPGVGVPGKGVPGVGVPGVGVPGVGVPGVGVPGVGVPGVGVPGVGVPGVGVPGVGVPGVGVPGVGVPGAGAGSGAGAGSGAGAGSGAGAGSGAGAGSGAGAGAGSGAGAGSGAGAGSGVGVPGVGVPGVGVPGVGVPGKGVPGVGVPGVGVPGVGVPGVGVPGVGVPGVGVPGVGVPGVGVPGVGVPGVGVPGVGVPGAGAGSGAGAGSGAGAGSGAGAGSGAGAGSGAGAMDPGRYQDLRSHHHHHH
modifications: monomer repeated 6 times; Hybrid of Homo sapein and Bombyx mori
- tumor transfection (β-gal) compared to free virus ([1]; Ad.CMV.LacZ 5×10^8 PFU intratumoral, week one): more than 50 fold
- difference in tumor vs. liver transfection ([1]; Ad.CMV.LacZ, week two): 55 fold
- toxicity conclusion of the statistical comparison ([2]; 12 week study, comparison named in the table line): SELP itself is not toxic in
- p (ANOVA and Bonferroni post-test) Vs Control ([2]; 12 week subchronic toxicity study): p > .05
- digestion by MMP-9 [3]: is not
- digestion by MMP-2 [4]: is not
